The Kd is the concentration at which binding is half-saturated.

The values below come from US20190127444A1 (NEW YORK UNIVERSITY, published 2019).

For test [1], the target named is T1, LukAB toxoid variant (LukA E323A), recombinant polyhistidine-tagged (S. aureus, UniProt Q2FFA2 28-351; P21224 30-338).
T1 sequence 1: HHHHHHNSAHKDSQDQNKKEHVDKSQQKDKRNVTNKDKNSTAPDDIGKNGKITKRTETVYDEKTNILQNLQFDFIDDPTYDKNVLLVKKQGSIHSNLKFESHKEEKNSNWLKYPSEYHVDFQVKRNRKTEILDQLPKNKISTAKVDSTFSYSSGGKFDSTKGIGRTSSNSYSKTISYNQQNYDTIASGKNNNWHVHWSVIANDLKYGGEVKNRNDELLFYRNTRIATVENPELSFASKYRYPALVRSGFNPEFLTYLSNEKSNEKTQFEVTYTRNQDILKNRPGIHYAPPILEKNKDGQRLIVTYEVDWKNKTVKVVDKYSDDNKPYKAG
T1 sequence 2: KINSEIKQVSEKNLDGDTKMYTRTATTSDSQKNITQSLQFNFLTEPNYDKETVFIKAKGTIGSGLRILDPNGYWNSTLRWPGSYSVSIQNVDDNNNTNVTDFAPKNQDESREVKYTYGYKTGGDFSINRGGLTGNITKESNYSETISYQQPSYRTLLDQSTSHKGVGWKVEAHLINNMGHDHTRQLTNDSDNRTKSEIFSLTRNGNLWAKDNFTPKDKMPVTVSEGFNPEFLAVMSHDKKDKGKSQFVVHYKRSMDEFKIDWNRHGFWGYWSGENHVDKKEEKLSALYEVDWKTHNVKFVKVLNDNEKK
The test can be described thus: SPR (Biacore T200), single cycle kinetics, 1:1 model. In general terms: SPR reads the build-up and loss of mass on a sensor chip optically.

Test [2] has as its target T1, LukAB toxoid variant (LukA E323A), …. The test can be described thus: ELISA, biotinylated toxin on streptavidin plate.
Test [3] has the same target. The test can be described thus: SPR (Biacore T200), construct captured via anti-human Fc, LukAB as analyte.
The target of test [4] is T2, Human serum albumin conjugated with biotin (Rockland 009-0633) (human, UniProt P02768 25-609).
T2 construct: also called HSA
The test can be described thus: ELISA, biotinylated HSA on streptavidin plate. For orientation: An ELISA detects its analyte on a solid surface through an enzyme-linked reagent.

T2 sequence (P02768 25-609 limits assumed): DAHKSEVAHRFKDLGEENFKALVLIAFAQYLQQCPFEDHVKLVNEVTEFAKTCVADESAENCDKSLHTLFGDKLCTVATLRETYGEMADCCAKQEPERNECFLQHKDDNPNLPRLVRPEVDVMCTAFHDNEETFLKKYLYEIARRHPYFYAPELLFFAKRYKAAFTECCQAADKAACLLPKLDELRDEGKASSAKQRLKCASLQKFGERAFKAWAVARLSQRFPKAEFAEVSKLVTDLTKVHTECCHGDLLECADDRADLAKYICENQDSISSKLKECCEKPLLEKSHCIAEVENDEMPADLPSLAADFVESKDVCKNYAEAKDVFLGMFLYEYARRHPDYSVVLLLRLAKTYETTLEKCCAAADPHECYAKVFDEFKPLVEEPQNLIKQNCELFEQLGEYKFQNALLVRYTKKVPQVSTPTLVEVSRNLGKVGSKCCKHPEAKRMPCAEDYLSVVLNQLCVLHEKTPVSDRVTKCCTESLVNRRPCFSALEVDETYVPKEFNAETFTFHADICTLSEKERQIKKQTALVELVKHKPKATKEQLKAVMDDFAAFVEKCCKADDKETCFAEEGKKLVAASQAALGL

B1: mAb 5133 PRASA A6 HC-L4-AB (Table 1 Construct 6) (bispecific antibody)
heavy: EVQLVETGGGLVKPGGSLRLSCSASRFSFRDYYMTWIRQAPGKGPEWVSHISGSGSTIYYADSVRGRFTISRDNAKSSLYLQMDSLQADDTAVYYCARGGRATSYYWVHWGPGTLVTVSSASTKGPSVFPLAPSSKSTSGGTAALGCLVKDYFPEPVTVSWNSGALTSGVHTFPAVLQSSGLYSLSSVVTVPSSSLGTQTYICNVNHKPSNTKVDKKVEPKSCDKTHTCPPCPAPPVAGPDVFLFPPKPKDTLMISRTPEVTCVVVDVSHEDPEVKFNWYVDGVEVHNAKTKPREEQYNSTYRVVSVLTVLHQDWLNGKEYKCKVSNAALPAPIAKTISKAKGQPREPQVYTLPPSRDELTKNQVSLTCLVKGFYPSDIAVEWESNGQPENNYKTTPPVLDSDGSFFLYSKLTVDKSRWQQGNVFSCSVMHEALHNRFTQKSLSLSPGKGGGGSGGGGSGGGGSGGGGSMLPAPKNLVVSRVTEDSARLSWTAPDAAFDSFWITYEEKFYRGEAIVLTVPGSERSYDLTGLKPGTEYKVWIVGVKGGQGSWPLSAIFTT
light: EIVLTQSPATLSLSPGERATLSCRASQSVSGYLGWYQQKPGQAPRLLIYGASSRATGIPDRFSGSGSGTDFTLTISRLEPEDFAVYYCQQYGSSPLTFGGGTKLEIKRTVAAPSVFIFPPSDEQLKSGTASVVCLLNNFYPREAKVQWKVDNALQSGNSQESVTEQDSKDSTYSLSSTLTLSKADYEKHKVYACEVTHQGLSSPVTKSFNRGEC
notes: also called CR5133 PRASA A6 HC-L4-AB
Take B1: the Kd in test [1] came to 70 pM.

B2: 3×3 linker variant of Construct 11 (bispecific antibody)
heavy: EVQLVETGGGLVKPGGSLRLSCSASRFSFRDYYMTWIRQAPGKGPEWVSHISGSGSTIYYADSVRGRFTISRDNAKSSLYLQMDSLQADDTAVYYCARGGRATSYYWVHWGPGTLVTVSSASTKGPSVFPLAPSSKSTSGGTAALGCLVKDYFPEPVTVSWNSGALTSGVHTFPAVLQSSGLYSLSSVVTVPSSSLGTQTYICNVNHKPSNTKVDKKVEPKSCDKTHTCPPCPAPPVAGPDVFLFPPKPKDTLMISRTPEVTCVVVDVSHEDPEVKFNWYVDGVEVHNAKTKPREEQYNSTYRVVSVLTVLHQDWLNGKEYKCKVSNAALPAPIAKTISKAKGQPREPQVYTLPPSRDELTKNQVSLTCLVKGFYPSDIAVEWESNGQPENNYKTTPPVLDSDGSFFLYSKLTVDKSRWQQGNVFSCSVMHEALHNRFTQKSLSLSPGKGGGGSGGGGSGGGGSMLPAPKNLVVSRVTEDSARLSWTAPDAAFDSFHIEYAEPWVWGEAIVLTVPGSERSYDLTGLKPGTEYVVFIGGVKGGHNSTPLSAIFTTGGGGSGGGGSGGGGSMLPAPKNLVVSRVTEDSARLSWTAPDAAFDSFWITYEEKFYRGEAIVLTVPGSERSYDLTGLKPGTEYKVWIVGVKGGQGSWPLSAIFTT
light: EIVLTQSPATLSLSPGERATLSCRASQSVSGYLGWYQQKPGQAPRLLIYGASSRATGIPDRFSGSGSGTDFTLTISRLEPEDFAVYYCQQYGSSPLTFGGGTKLEIKRTVAAPSVFIFPPSDEQLKSGTASVVCLLNNFYPREAKVQWKVDNALQSGNSQESVTEQDSKDSTYSLSSTLTLSKADYEKHKVYACEVTHQGLSSPVTKSFNRGEC
As for B2, the binding result in test [2] is “binds”.

B3: mAb 5133 PRASA A6 (CR5133 PRASA A6; Table 1 Construct 4) (antibody)
heavy: EVQLVETGGGLVKPGGSLRLSCSASRFSFRDYYMTWIRQAPGKGPEWVSHISGSGSTIYYADSVRGRFTISRDNAKSSLYLQMDSLQADDTAVYYCARGGRATSYYWVHWGPGTLVTVSSASTKGPSVFPLAPSSKSTSGGTAALGCLVKDYFPEPVTVSWNSGALTSGVHTFPAVLQSSGLYSLSSVVTVPSSSLGTQTYICNVNHKPSNTKVDKKVEPKSCDKTHTCPPCPAPPVAGPDVFLFPPKPKDTLMISRTPEVTCVVVDVSHEDPEVKFNWYVDGVEVHNAKTKPREEQYNSTYRVVSVLTVLHQDWLNGKEYKCKVSNAALPAPIAKTISKAKGQPREPQVYTLPPSRDELTKNQVSLTCLVKGFYPSDIAVEWESNGQPENNYKTTPPVLDSDGSFFLYSKLTVDKSRWQQGNVFSCSVMHEALHNRFTQKSLSLSPGK
light: EIVLTQSPATLSLSPGERATLSCRASQSVSGYLGWYQQKPGQAPRLLIYGASSRATGIPDRFSGSGSGTDFTLTISRLEPEDFAVYYCQQYGSSPLTFGGGTKLEIKRTVAAPSVFIFPPSDEQLKSGTASVVCLLNNFYPREAKVQWKVDNALQSGNSQESVTEQDSKDSTYSLSSTLTLSKADYEKHKVYACEVTHQGLSSPVTKSFNRGEC
notes: no FN3 domains
Turning to B3, the binding result in test [3] is listed as “no binding (tested: 100 nM)”.

B4: 3×4 linker variant of Construct 11 (bispecific antibody)
heavy: EVQLVETGGGLVKPGGSLRLSCSASRFSFRDYYMTWIRQAPGKGPEWVSHISGSGSTIYYADSVRGRFTISRDNAKSSLYLQMDSLQADDTAVYYCARGGRATSYYWVHWGPGTLVTVSSASTKGPSVFPLAPSSKSTSGGTAALGCLVKDYFPEPVTVSWNSGALTSGVHTFPAVLQSSGLYSLSSVVTVPSSSLGTQTYICNVNHKPSNTKVDKKVEPKSCDKTHTCPPCPAPPVAGPDVFLFPPKPKDTLMISRTPEVTCVVVDVSHEDPEVKFNWYVDGVEVHNAKTKPREEQYNSTYRVVSVLTVLHQDWLNGKEYKCKVSNAALPAPIAKTISKAKGQPREPQVYTLPPSRDELTKNQVSLTCLVKGFYPSDIAVEWESNGQPENNYKTTPPVLDSDGSFFLYSKLTVDKSRWQQGNVFSCSVMHEALHNRFTQKSLSLSPGKGGGGSGGGGSGGGGSMLPAPKNLVVSRVTEDSARLSWTAPDAAFDSFHIEYAEPWVWGEAIVLTVPGSERSYDLTGLKPGTEYVVFIGGVKGGHNSTPLSAIFTTGGGGSGGGGSGGGGSGGGGSMLPAPKNLVVSRVTEDSARLSWTAPDAAFDSFWITYEEKFYRGEAIVLTVPGSERSYDLTGLKPGTEYKVWIVGVKGGQGSWPLSAIFTT
light: EIVLTQSPATLSLSPGERATLSCRASQSVSGYLGWYQQKPGQAPRLLIYGASSRATGIPDRFSGSGSGTDFTLTISRLEPEDFAVYYCQQYGSSPLTFGGGTKLEIKRTVAAPSVFIFPPSDEQLKSGTASVVCLLNNFYPREAKVQWKVDNALQSGNSQESVTEQDSKDSTYSLSSTLTLSKADYEKHKVYACEVTHQGLSSPVTKSFNRGEC
In the case of B4, the binding result in test [2] was “binds”.

B5: Luk970 Hla binding FN3 domain, polyhistidine-tagged version (designed binder)
chain: LPAPKNLVVSRVTEDSARLSWNRGLIPFDSFLIQYQESEKVGEAIVLTVPGSERSYDLTGLKLGTEYTVSIYGVGTYYPWWPLSNPLSAIFTT
As for B5, the binding result in test [4] was “no binding (tested: 1 µM)”.

B6: Luk982 Hla binding FN3 domain, polyhistidine-tagged version (designed binder)
chain: LPAPKNLVVSRVTEDSARLSWTAPDAAFDSFAIGYPEYHDAGEAIHLFVPGSERSYDLTGLKPGTEYVVAIRGVKGGHASEPLHAHFTT
For B6, the binding result in test [4] is “no binding (tested: 1 µM)”.

B7: Luk967 Hla binding FN3 domain, polyhistidine-tagged version (designed binder)
chain: LPAPKNLVVSRVTEDSARLSWEANAWDDVNFDSFLIQYQESEKVGEAIVLTVPGSERSYDLTGLKPGTEYTVSIYGVWNQTHYRWPSNPLSAIFTT
Take B7: the binding result in test [4] is reported as “no binding (tested: 1 µM)”.

B8: Luk1012 Hla binding FN3 domain, polyhistidine-tagged version (designed binder)
chain: LPAPKNLVVSRVTEDSARLSWTAPDAAFDSFFILYVEYSVNGEAIELSVPGSERSYDLTGLKPGTEYDVIIGGVKGGNHSKPLVAFFTT
Regarding B8, the binding result in test [4] is given as “no binding (tested: 1 µM)”.

B9: Luk969 Hla binding FN3 domain, polyhistidine-tagged version (designed binder)
chain: LPAPKNLVVSRVTEDSARLSWNSEIAEQFFFDSFLIQYQESEKVGEAIVLTVPGSERSYDLTGLKPGTEYTVSIYGVWGHWDWYWKTSNPLSAIFTT
Regarding B9, the binding result in test [4] was “no binding (tested: 1 µM)”.
